Measurements: PMC3812847

Target: T1, C-RapL (purified domain) (human)
T1 sequence (Q8WWW0 whole entry, looked up): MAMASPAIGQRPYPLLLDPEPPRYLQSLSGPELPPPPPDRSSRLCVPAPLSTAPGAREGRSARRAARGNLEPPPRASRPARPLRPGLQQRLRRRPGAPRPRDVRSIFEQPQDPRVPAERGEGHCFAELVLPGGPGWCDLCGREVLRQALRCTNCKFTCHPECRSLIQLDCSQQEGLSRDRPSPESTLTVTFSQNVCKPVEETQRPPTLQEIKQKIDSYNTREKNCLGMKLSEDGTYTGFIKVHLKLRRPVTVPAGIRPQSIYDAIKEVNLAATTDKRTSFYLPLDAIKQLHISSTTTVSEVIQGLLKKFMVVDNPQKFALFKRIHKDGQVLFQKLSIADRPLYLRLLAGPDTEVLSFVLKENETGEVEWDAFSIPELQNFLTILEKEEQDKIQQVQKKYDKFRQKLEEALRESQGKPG
Assay: ITC

B1: N-SKAP1 (purified domain) (domain or fragment)
chain: MQAAALPEEIRWLLEDAEEFLAEGLRNENLSAVARDHRDHILRGFQQIKARYYWDFQPQGGDIGQDSSDDNHSGTLGLSLTSDAPFLSDYQDEGMEDIVKGAQE
For B1, the Kd was 600 nM, the dH was -2.3 kcal/mol and the stoichiometry N was 0.85.
